Drawing on article PMC5006017, this text covers Kd for one substance.

pKd: −log10 of the molar value.

The pKd is the negative decadic logarithm of the Kd, by convention in mol/L.

The target of the experiment is syntenin-1 N-terminal wild-type peptide, biotinylated (UniProt O00560). The experiment in a line: SPR; BIAcore 3000; biotinylated syntenin-1 N-terminal peptides immobilised on streptavidin-coupled CM5 chips, ALIX V-domain injected at 20 μl/min; 10 mM HEPES pH 7.4, 150 mM NaCl, 0.005% Surfactant P20; equilibrium analysis, one-site binding model. For orientation: SPR reads the build-up and loss of mass on a sensor chip optically.

With “ALIX V-domain (ALIX 364-716) (from UniProt Q8WUM4 364-716) (domain or fragment)”, the pKd was 4.54.
